In IntAct's records for PubMed 29039417:

B1: Isoform 2 of Bardet-Biedl syndrome 7 protein (Homo sapiens), Q8IWZ6-2 (parent)
chain: MDLILNRMDYLQVGVTSQKTMKLIPASRHRATQKVVIGDHDGVVMCFGMKKGEAAAVFKTLPGPKIARLELGGVINTPQEKIFIAAASEIRGFTKRGKQFLSFETNLTESIKAMHISGSDLFLSASYIYNHYCDCKDQHYYLSGDKINDVICLPVERLSRITPVLACQDRVLRVLQGSDVMYAVEVPGPPTVLALHNGNGGDSGEDLLFGTSDGKLALIQITTSKPVRKWEIQNEKKRGGILCIDSFDIVGDGVKDLLVGRDDGMVEVYSFDNANEPVLRFDQMLSESVTSIQGGCVGKDSYDEIVVSTYSGWVTGLTTEPIHKESGPGEELKINQEMQNKISSLRNELEHLQYKVLQERENYQQSSQSSKAKSAVPSFGINDKFTLNKDDASYSLILEVQTAIDNVLIQSDVPIDLLDVDKNSAVVSFSSCDSESNDNFLLATYRCQADTTRLELKIRSIEGQYGTLQAYVTPRIQPKTCQVRQYHIKPLSLHQRTHFIDHDRPMNTLTLTGQFSFAEVHSWVVFCLPEVPEKPPAGECVTFYFQNTFLDTQLESTYRKGEGVFKSDNISTISILKDVLSKEATKRKINLNISYEINEVSVKHTLKLIHPKLEYQLLLAKKVQLIDALKELQIHEGNTNFLIPEYHCILEEADHLQEEYKKQPAHLERLYG
partner: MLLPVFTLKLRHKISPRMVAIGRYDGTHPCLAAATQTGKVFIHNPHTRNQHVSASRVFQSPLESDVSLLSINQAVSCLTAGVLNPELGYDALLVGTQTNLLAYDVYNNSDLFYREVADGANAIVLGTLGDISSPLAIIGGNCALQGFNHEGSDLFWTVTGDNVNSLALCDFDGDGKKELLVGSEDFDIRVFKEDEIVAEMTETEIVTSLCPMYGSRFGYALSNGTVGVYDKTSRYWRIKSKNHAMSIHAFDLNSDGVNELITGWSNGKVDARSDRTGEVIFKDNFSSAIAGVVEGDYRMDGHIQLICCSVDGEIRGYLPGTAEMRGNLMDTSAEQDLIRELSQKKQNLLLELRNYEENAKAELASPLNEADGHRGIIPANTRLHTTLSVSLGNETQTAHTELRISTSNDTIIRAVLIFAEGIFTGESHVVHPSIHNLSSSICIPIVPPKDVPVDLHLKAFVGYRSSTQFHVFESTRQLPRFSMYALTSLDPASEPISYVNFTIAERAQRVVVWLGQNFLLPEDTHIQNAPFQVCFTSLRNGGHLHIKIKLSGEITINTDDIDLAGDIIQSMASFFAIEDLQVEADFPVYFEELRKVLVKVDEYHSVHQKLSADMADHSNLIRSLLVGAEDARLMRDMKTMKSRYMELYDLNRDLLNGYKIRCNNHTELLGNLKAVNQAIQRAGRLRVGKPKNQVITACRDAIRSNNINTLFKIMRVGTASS

Variants of: B1
Details: with bbs2_human BBS2, Q9BXC9

Row | effect of a mutation on the interaction | Variant
1 | with no effect | F517E
2 | with no effect | F517K
3 | with no effect | A518E
4 | with no effect | A518K
5 | with no effect | E519A
6 | with no effect | E519K
7 | with no effect | V520A
8 | with no effect | V520E
9 | with no effect | V520K
10 | with no effect | H521A
11 | with no effect | H521E
12 | with no effect | H521K
13 | with no effect | S522A
14 | disrupting interaction strength | S522E
15 | with no effect | S522K
16 | disrupting interaction strength | W523A
17 | with no effect | W523E
18 | with no effect | W523K
19 | with no effect | V524A
20 | with no effect | V524E
21 | with no effect | V524K
22 | with no effect | V525A
23 | with no effect | V525E

Row | effect of a mutation on the interaction | Variant
24 | with no effect | V525K
25 | with no effect | F526A
26 | with no effect | F526E
27 | with no effect | F526K
28 | with no effect | C527A
29 | with no effect | C527E
30 | with no effect | C527K
31 | with no effect | L528A
32 | with no effect | L528E
33 | with no effect | L528K
34 | with no effect | P529A
35 | disrupting interaction strength | P529C
36 | with no effect | P529E
37 | with no effect | P529K
38 | disrupting interaction strength | P529S
39 | with no effect | E530A
40 | with no effect | E530K
41 | with no effect | V531A
42 | with no effect | V531E
43 | with no effect | V531K
44 | with no effect | P532A
45 | with no effect | P532E
46 | with no effect | P532K

Row | effect of a mutation on the interaction | Variant
47 | with no effect | E533A
48 | with no effect | E533K
49 | with no effect | K534A
50 | with no effect | K534E
51 | with no effect | P535A
52 | with no effect | P535E
53 | with no effect | P535K
54 | with no effect | P536A
55 | with no effect | P536E
56 | with no effect | P536K
57 | with no effect | A537E
58 | with no effect | A537K
59 | with no effect | G538A
60 | with no effect | G538E
61 | with no effect | G538K
62 | with no effect | E539A
63 | with no effect | E539K
64 | with no effect | C540A
65 | with no effect | C540E
66 | with no effect | C540K
67 | with no effect | V541A
68 | with no effect | V541E

Further lines, the variant ahead of its results:

Row | Variant | effect of a mutation on the interaction
69 | R484K | with no effect
70 | Q485A | with no effect
71 | Q485E | with no effect
72 | Q485K | with no effect
73 | Q485L | disrupting interaction strength
74 | Q485N | disrupting interaction strength
75 | Q485R | disrupting interaction strength
76 | Y486A | with no effect
77 | Y486E | with no effect
78 | Y486K | with no effect
79 | H487A | with no effect
80 | H487E | with no effect
81 | H487K | with no effect
82 | I488A | with no effect
83 | I488E | with no effect
84 | I488K | with no effect
85 | K489A | with no effect
86 | K489E | with no effect
87 | P490A | with no effect
88 | P490E | with no effect
89 | P490K | with no effect
90 | P490L | disrupting interaction strength

Row | Variant | effect of a mutation on the interaction
91 | L491A | with no effect
92 | L491E | with no effect
93 | L491K | with no effect
94 | L491P | disrupting interaction strength
95 | S492A | with no effect
96 | S492E | with no effect
97 | S492K | with no effect
98 | L493A | with no effect
99 | L493E | with no effect
100 | L493K | with no effect
101 | L493P | disrupting interaction strength
102 | H494A | with no effect
103 | H494E | with no effect
104 | H494K | with no effect
105 | Q495A | with no effect
106 | Q495E | with no effect
107 | Q495K | with no effect
108 | R496A | with no effect
109 | R496E | with no effect
110 | R496K | with no effect
111 | T497A | with no effect
112 | T497E | with no effect

Row | Variant | effect of a mutation on the interaction
113 | T497K | with no effect
114 | H498A | with no effect
115 | H498E | with no effect
116 | H498K | with no effect
117 | F499A | with no effect
118 | F499E | with no effect
119 | F499K | with no effect
120 | F499S | disrupting interaction strength
121 | I500A | with no effect
122 | I500E | with no effect
123 | I500K | with no effect
124 | D501A | with no effect
125 | D501E | with no effect
126 | D501K | with no effect
127 | H502A | with no effect
128 | H502E | with no effect
129 | H502K | with no effect
130 | D503A | with no effect
131 | D503E | with no effect
132 | D503K | with no effect
133 | R504A | with no effect
134 | R504E | with no effect

Row | Variant | effect of a mutation on the interaction
135 | R504K | with no effect
136 | P505A | with no effect
137 | P505E | with no effect
138 | P505K | with no effect
139 | M506A | with no effect
140 | M506E | with no effect
141 | M506K | with no effect
142 | N507A | with no effect
143 | N507E | with no effect
144 | N507K | with no effect
145 | T508A | with no effect
146 | T508E | with no effect
147 | T508K | with no effect
148 | L509A | with no effect
149 | L509E | with no effect
150 | L509K | with no effect
151 | L509P | disrupting interaction strength
152 | T510A | with no effect
153 | T510E | with no effect
154 | T510K | with no effect
155 | L511A | with no effect
156 | L511E | with no effect

Row | Variant | effect of a mutation on the interaction
157 | L511K | with no effect
158 | L511P | disrupting interaction strength
159 | T512A | with no effect
160 | T512E | with no effect
161 | T512K | with no effect
162 | G513A | with no effect
163 | G513D | disrupting interaction strength
164 | G513E | with no effect
165 | G513H | disrupting interaction strength
166 | G513K | with no effect
167 | G513S | disrupting interaction strength
168 | G513Y | disrupting interaction strength
169 | Q514A | with no effect
170 | Q514E | with no effect
171 | Q514K | with no effect
172 | F515A | with no effect
173 | F515E | with no effect
174 | F515K | disrupting interaction strength
175 | S516A | with no effect
176 | S516E | with no effect
177 | S516K | with no effect
178 | F517A | with no effect
